What was measured:
[1] = biological target: T1, TNFR2 on human cells (Kym-1 cells; human CD3+ T cells) (human, UniProt P20333 23-461); experiment: cell-based or functional assay
T1 sequence (looked up): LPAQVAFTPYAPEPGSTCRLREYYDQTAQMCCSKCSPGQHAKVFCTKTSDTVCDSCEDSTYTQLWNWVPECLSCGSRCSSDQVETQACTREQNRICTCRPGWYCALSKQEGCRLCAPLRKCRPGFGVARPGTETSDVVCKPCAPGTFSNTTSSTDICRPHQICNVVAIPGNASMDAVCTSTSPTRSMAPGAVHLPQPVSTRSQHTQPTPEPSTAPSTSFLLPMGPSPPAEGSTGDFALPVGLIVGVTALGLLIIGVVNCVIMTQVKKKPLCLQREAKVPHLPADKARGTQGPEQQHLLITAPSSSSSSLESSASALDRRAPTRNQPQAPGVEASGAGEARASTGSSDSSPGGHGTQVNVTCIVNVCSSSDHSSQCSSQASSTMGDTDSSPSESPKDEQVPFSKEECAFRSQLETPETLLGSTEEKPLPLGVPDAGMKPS

[2] = biological target: T1, TNFR2 on human cells (Kym-1 cells; …); experiment: cell-based or functional assay; remark: listed apart in the source
[3] = biological target: T2, human TNFR2-Fc fusion protein (human, UniProt P20333 23-257); experiment: ELISA, huTNFR2-Fc coated at 1 µg/ml, bound protein detected with anti-TNF F6C5
T2 construct: also called huTNFR2-Fc; huTNFR2
T2 sequence (looked up): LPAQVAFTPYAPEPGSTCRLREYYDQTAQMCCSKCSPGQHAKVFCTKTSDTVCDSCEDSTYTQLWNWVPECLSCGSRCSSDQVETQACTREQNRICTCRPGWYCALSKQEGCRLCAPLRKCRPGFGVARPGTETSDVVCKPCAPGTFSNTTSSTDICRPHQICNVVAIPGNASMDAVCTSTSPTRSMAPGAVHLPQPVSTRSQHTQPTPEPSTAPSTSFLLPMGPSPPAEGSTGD
Experimental: ELISA plates (Greiner, Frickenhausen, Germany) were coated with huTNFR1-Fc, mTNFR1-Fc, huTNFR2-Fc or mTNFR2-Fc fusion proteins at 1 μg/ml in PBS and incubated at 4° C. overnight. Residual binding sites were blocked with 2% skim milk powder in PBS at RT for 2 hours. ScTNFR2 and the complexes were diluted in 2% skim milk powder in PBS and added at concentrations in the range of 10⁻³ to 10 nM and incubated for 1 hour at RT. Between each step, non-bound proteins were removed by washing 4 times with 0.005% Tween-20 in PBS.
Bound proteins were detected with mouse monoclonal antibodies to TNF (clone F6C5; 1 μg/ml; incubation for 1 hour at RT) and HRP-conjugated anti-mouse IgG antibodies (diluted 1:10000; incubation for 1 hour at RT), followed by incubation with tetramethylbenzidine (TMB) substrate solution. Reaction was stopped by addition of 1 M H₂SO₄ and the absorbance at 450 nm was determined with a Multiskan FC absorbance reader (Thermo Scientific, Karlsruhe, Germany) and data were analyzed using the software Microsoft Excel and GraphPad Prism 4 (GraphPad, La Jolla, Calif.) (FIG. 5). In Table 3, the calculated EC₅₀ values for the binding of TNF, scTNFR2 and the complexes to immobilized huTNFR2 and mTNFR2 based on the ELISA assay are summarized.

B1: EHD2-scTNFR2 (human) (ligand)
chain: DFTPPTVKILQSSCDGGGHFPPTIQLLCLVSGYTPGTINITWLEDGQVMDVDLSTASTTQEGELASTQSELTLSQKHWLSDRTYTCQVTYQGHTFEDSTKKCADSNGGGSGGGSGGGSGGGSGGGSGGSEFLASSRTPSDKPVAHVVANPQAEGQLQWLNRRANALLANGVELRDNQLVVPSEGLYLIYSQVLFKGQGCPSTHVLLTHTISRIAVSYQTKVNLLSAIKSPCQRETPEGAEAKPWYEPIYLGGVFQLEKGDRLSAEINRPDYLNFRESGQVYFGIIALGGGGSSSRTPSDKPVAHVVANPQAEGQLQWLNRRANALLANGVELRDNQLVVPSEGLYLIYSQVLFKGQGCPSTHVLLTHTISRIAVSYQTKVNLLSAIKSPCQRETPEGAEAKPWYEPIYLGGVFQLEKGDRLSAEINRPDYLNFRESGQVYFGIIALGGGGSSSRTPSDKPVAHVVANPQAEGQLQWLNRRANALLANGVELRDNQLVVPSEGLYLIYSQVLFKGQGCPSTHVLLTHTISRIAVSYQTKVNLLSAIKSPCQRETPEGAEAKPWYEPIYLGGVFQLEKGDRLSAEINRPDYLNFRESGQVYFGIIAL
notes: Hexavalent dimer of two subunits; also called hexavalent EHD2-scTNFR2
EC50 of Kym-1 cell viability (crystal violet assay after 16 h) [1]: 37000 nM | EC50 values (nM) of cell death induction using Kym-1 cells [2]: 0.0126 nM | EC50 [3]: 0.508 nM
